Experiment: soluble on expression in E. coli; label from the status in PepcDB or PDB records

Sequence | soluble on expression in E. coli
KFRTMRQNLQEASDVLDDQIESFTKIIQNHYKLSPNDFADPTIQSQSEIYAVGRIVPDSPTYDKFLNPESLSLETSRMGGVGRRVRLDLSQVNELSFFLGQIVAFKGKNANGDYFTVNSILPLPYPNSPVSTSQELQEFQANLEGSSLKVIVTCGPYFANDNFSLELLQEFIDSINNEVKPHVLIMFGPFIDITHPLIASGKLPNFPQFKTQPKTLDELFLKLFTPILKTISPHIQTVLIPSTKDAISNHAAYPQASLIRKALQLPKRNFKCMANPSSFQINEIYFGCSNVDTFKDLKEVIKGGTTSSRYRLDRVSEHILQQRRYYPIFPGSIRTRIKPKDVSTKKETNDMESKEEKVYEHISGADLDVSYLGLTEFVGGFSPDIMIIPSELQHFARVVQNVVVINPGRFIRATGNRGSYAQITVQCPDLEDGKLTLVEGEEPVYLHNVWKRARVDLIAS | soluble
MSMGKQGVKTAVPKLRFPEFRHSEAWELKKLSCFLVEQKKRNKNLSFGPQEVLSVSGEHGCVNQIELLGRSYAGVSLANYHVVETGDIVYTKSPLKRNPFGIIKENKGKPGVVSTLYAVYRTTVFGNPAFLDHYFSGDYNLNSYLQPIVRKGAKNDMKVSNAAVLAGEVFAPEVEEQKKIADFLTSLDDLISVQVLKVEALKVHKRGLMQELFPREGEASPRLRFPEFSNASGWTLGKASDIIDVLQGYGFPERLQGGREGNFPFYKVSDISACVDAGGILLDKANNHIDADVLEELRAKLMPIGSTVFAKIGEAIRSNKRAITSRPCLVDNNVAGVKAITGLAHDRFVYYMWCQIPLIEYAGGVVPAVKKSLMEQIPVCYPKFDEQQRIADFLSSLDAKIAAEFDQLAALRTHKKGLMQQLFPLSEVGLLEHHHHHH | soluble
MSLVLLYTPKQKTKNVQTITADILDLDYQGLGVAKINGKTWFIENALPHEKVECRILEDKRQYGHAIVKKWRVKSPERLEPKCAHFMRCGGCQGQHIPIEMQRKAKESALFKRLSKLQSEPISFQPMICGDAWAYRRRVRLSLWFNPSTKQIEMGFRQKNTNDLIPVQSCEVAEPAINYLLPKLTALLEKFSAPKQLGHIELVAADNGVAMLLRYTKNLAEIDRTLLLKFAEQEKLMLFLQSDKGIEQIYGDAPYYQFSDGIKLHFDIRDFIQVNSALNEPMVNTALDWLELSQQDCVLDLFCGMGNFTLPLAKRVKSAVGIEGVFEMVQKAAQNAERNQIKNIEFFQADLDQSFVEQPWANQSFNKILLDPPRSGAAFALNALCELKAEKILYVSCNPATLVRDAEILCNFGYKIEKSAVIDMFPHTGHLESITLFTTKEGHHHHHH | soluble
MGSDKIHHHHHHMSEWDKNRWKEGRSSEYTWKGVVFMAKIMKQFLKGNDLSLSIQEIFKNELIPCTVRHLPKGEILWHDKEPHPYSYFIINGIIKLHVVTKEGREKALFYYTNGSLLGFQNLAKEKRTITTATAILPTSLYACEFSLLYTFVMNNPQYFAAFTSYIFHHMAVEAEEIVNISLYNTAERLAALLVLLAEEFPQNEQGYIEIPFNNEELATMVGACRNSVFNALSVFQKQKLIHKGRGRLVIADLPRLKEYV | not soluble
MCMDKNVMWLRERINKVIKALEENNMNGYLVNSKEELISKIEELTNSGDIVACGGSMSLFEAGVIDHLRSGRYEFLDRYKEGLKPEDIKKIYRDAFSSDVYFTSTNAITEEGEIYNVDGNGNRVAAMLYGPDKVIIVAGYNKIVENLSEAIQRNRRISAPANAKRLNKKTPCAKVGNCMDCKSPEKICREYTLIRSQSNSNRIHVIFLNEELGYLEHHHHHH | soluble
MQREQTKVFKRVAGIKDKAAIKTLISAAYRQIFERDIAPYIAQNEFSGWESKLGNGEITVKEFIEGLGYSNLYLKEFYTPYPNTKVIELGTKHFLGRAPIDQAEIRKYNQILATQGIRAFINALVNSQEYNEVFGEDTVPYRRFPTLPALEHHHHHH | soluble
MKELIRKLTEAFGPSGREEEVRSIILEELEGHIDGHRIDGLGNLIVWKGSGEKKVILDAHIDEIGVVVTNVDDKGFLTIEPVGGVSPYMLLGKRIRFENGTIGVVGMEGETTEERQENVRKLSFDKLFIDIGANSREEAQKMCPIGSFGVYDSGFVEVSGKYVSKAMDDRIGCAVIVEVFKRIKPAVTLYGVFSVQEEVGLVGASVAGYGVPADEAIAIDVTDSADTPKAIKRHAMRLSGGPALKVKDRASISSKRILENLIEIAEKFDIKYQMEVLTFGGTNAMGYQRTREGIPSATVSIPTRYVHSPSEMIAPDDVEATVDLLIRYLGA | not soluble
MRLIKVIITSQKEYSMKKLLSLSAITLSVLAPSAFAAQEVNVYSYRQPFLIEPMFAEFTKETGIKVNVKFAKEGIAEKLAQEGEYSPADVILTSEFSRLFELTEKGLTQPLDSKVIEENIPAQYRDSGDEWFALTQRTRSVYSSRDRLGKLGDDFDYMDLAKPEFKGKICTRSGKHPYNIALVASIIANHGEAEAKAWLEGVKANLARKPQGNDRDQVRAIKEGLCDVSLGNSYYLGAMLNDQEQKSWAEAVYINFPGQNVQGTHVNVSGMAMAKYSPNRENAQKLMEFLTGETAQKMYAEVNYEYPVKPGVQRSALVESWGEFKADSLPLEKIADNNAAAIKLIDEVKFDL | not soluble
MGSDKIHHHHHHMTRSGIGIRTAQQQSGRLTGQIHVYDGAGKGKSQAALGVVLRSIGLGIRDQWQSRVLLLRFLKGPGRTYDEDAAIEALQQGFPHLIDQVRTGRAEFFGPDAISRFDRQEARRGWDIAKGAIVSGLYSVIVLDELNPILDLGLLPVDEVVQTLRQKPPQVEVIATGRGAPPQLLEIADLHSEMIAHANPAVAPVGMEGIEIYTGEGKGKSTSALGKALQAIGRGIGQDLSHRVLILQWLKGGSGYTEDAAIQALRQSYPHLVDHQRSGRDAIVWRGQQQEIDYIEAERAWEIARAAIASGLYKTIILDELNPTVDLELLPEEPILQALLRKPRDTEVIITGRCKQIPAYFHLASVHSEMVCHKHYAERGIELKRGVDY | not soluble
MGSDKIHHHHHHMSESWVAVTGATGFIGNALLQSLIKEGWKVRALTRRARVDDESTQWIEGDLHDRDALRKLVTGVSAVVHCAGQVRGSSLESFVRTNVEGTANLMQASLEQNPPPRFLLVSSLAARQPELSWYATSKHMAERLIDERSAGMACAIFRPTAVYGPGDKEMSPLFRITRRGILPMVGQPEMRFGLLHVADLVAAITCWLSTAVPVQGTYELDDGMPGGYDSQAVATIAQEVWKRPVRCVFFPAPLVSLIANINLWSARMLSYSPMLTPGKVRELRHPDWVCDIDPLTRALPGWRPCIHLRDALPQAV | not soluble
MAQQKKTIAVVGATGRQGASLIRVAAAVGHHVRAQVHSLKGLIAEELQAIPNVTLFQGPLLNNVPLMDTLFEGAHLAFINTTSQAGDEIAIGKDLADAAKRAGTIQHYIYSSMPDHSLYGPWPAVPMWAPKFTVENYVRQLGLPSTFVYAGIYNNNFTSLPYPLFQMELMPDGTFEWHAPFDPDIPLPWLDAEHDVGPALLQIFKDGPQKWNGHRIALTFETLSPVQVCAAFSRALNRRVTYVQVPKVEIKVNIPVGYREQLEAIEVVFGEHKAPYFPLPEFSRPAAGSPKGLGPANGKGAGAGMMQGPGGVISQRVTDEARKLWSGWRDMEEYAREVFPIEEEANGLDWML | soluble
MKTKQTIAASTLALAMIAGANSAHAEVNDATPQQSTGDRLAEIKQHKQGLDAKLQQHKENVDQTLNELNKVKENVDTKVNELHERKQVADEKINEIKQHKQELDAKLQQDKQIAEDKIAEIKEHKKQVEDKVAEVKEHKQNIDNKVNEIKEHKQTVDEKVNEMKQHKENIDQKVNELKEVKKQVDEKLAELKKAKQTAEDKLAELKENKPNTGNTLEELKKIKSNLDSLSANLELAKQDVKNKLAALQEARQDLINKINEIKQSKQTVSDDLSKKKQDLDIKINDFKHTEKKIDDKLAEIHTTKQNIDNKINEVSQSKQTETKTGTTNANNNARELPNAGSKQSNNMALGMLSVLGGILLVTRNKIKTLFSK | not soluble
MKVVLQRVTRAAVTVGDEVVGSIGRGLCVLVGVHRDDTEEDMKYIIRKILNLRVFPASEQKPWDKSVMDLDLEVLSVSQFTLYGQFKGNKLDFHTAMAPTEASKFYASFLEAMKKAYKADKIQDGKFAAMMSVDIVNDGPVTVTFDSKEK | not soluble
MGSDKIHHHHHHMRATLAAAARDLNAAARFGADTACREGYHPVMLNTIIHGTPTDQPPLLIAHGLYGSGRNWGVIAKRLADERQVIAVDMRNHGLSPKTQSHSYVDLAEDLAEVIAAHGGRMDVVGHSMGGKAAMMLALRHPEAVNRLVVADIAPVSYQHTQAHFITAMRSVDLARVTRRSDAQEQLAAAGVDAMLQSFFTQSLDVENKSWRLNLDTLEREMPHILSFPEVETHWDGTALFLTGAHSDYVLPEHRPQIKRLFPAARFAKIPGAGHWLHAEKPREFEATVRGFLNA | not soluble
FCYSFCKNYANEIKKIITDFIEHNKINFQNEIENAFITSVIIVHTGIDAFSISLLI | not soluble
MGSDKIHHHHHHMKINTSMLWEDKAKSEVTYTTYLIEKTPDIKNKNPRPAVIICGGGGFFKVTDREKEPVALYFLNKGFQAITLDYTVGKGSGYPKPLYDLAKMLLIVRENAQNWNIDTEKVIFIGFSAGATHSASLANSWNEPFLQKYFDYPGETLKPSLVILSYPLLDFNYQYEQVSVDPDNQMPTKLSPMPKIDFLTGALKTVVGKELTTENLKEYSPIEHISTATVPTFIWGMQDDDCIYNNALLEYAKRLKDNGILYELHMFALGEHGLSVINSNTQAKFSDYEELGIWKKLCIQFINRVLHLK | not soluble
MDEQISKSQKKRDAHYLQDIGIKFIDLSASKLDSLPLPDNLRQAIVDARSIKSHGAKRRQAQLIGKLMRAADFEAILAAYEKILEEESSVTASFHEIELWRDRLLQDGKDALTEFIDAYQPEDVQQLRQLIKKALDDQMKEKNTGAAKALFRYLRSLIK | not soluble
MGSDKIHHHHHHMENYKERKLIAIDLDGTTLQSDGRSISRYTKYIFKQVESLGHIICITTGRPFRMSLDVYRELELTSPVINFNGALISMPNDKNWEHTKSYYIDRSFIFDLLRHQQNFNLHFFAVEYRRKFFLNTFRNVEPKLFGVEKFQPYNRLRADRVTENPHAVLLSTRQKDKLALAEEMKRHYNGKIDVGVWGGPNGILEVVPKGISKASGLNHLLKVLDIPLENLIAFGDEHNDIEMFKLAPNAYAMKNASARLTPYASEILPWTNDEDGVARQLEKLFLTPNK | not soluble
MSALEWYAHKSLGDGIFWIQERFYESGNRANIWLVRGSEQDVVIDTGLGLRSLPEYLYSSGLLQDREAKEDAARRPLLAVATHVHFDHSGGLYQFDRVAVHHAEAEALARGDNFETVTWLSDSEVVRAPSPGWRARQFRVQAVQPTLILQDGDVINLGDRQLTVMHMPGHSRGSICLHDKDRKILFSGDVVYDGSLIDWLPYSRISDYVGTCERLIELVDRGLVEKVLPGHFNTFGAERLFRLASNYISKAGICHKVSTFAMRSLASLALRVTNSRTSP | not soluble
MDERRKRKAKDQLSPYSNPDEENDRHNTAIEPSPSASRKRAKARVGDLGTIADSGPLKGVLSSVNILKPRIRSDRISGLNRCFVNAVQKVVEKESNKSLLYLFRQYEKYYEELNEASD | not soluble
SKLYDINNEIFEDLGAEKRELIQPNDVPQLLKDAIVSVEDRRFYKHIGVDPIRIIGSALSNVKNGGLQGGSTLTQQLIKLSYFSTKESDQTLKRKAQEAWMAVRLEREKSKEEILTYYINKVYMANGFYGMETAAENYYGKHLSELDLPQTALLAGMPQAPNSYDPYTKP | not soluble

— the DeepSol protein solubility set
